Our source for the stoichiometry N values is publication doi:10.1101/2022.08.26.505362.

By stoichiometry N is commonly meant a count of units in the complex or per binding partner.

Experiment [1] addresses fibrillin (molecule within bovine ciliary zonule microfibrils) (bovine (endogenous in ciliary zonule)) (UniProt P98133). Briefly: cryo-EM structure. As to conditions: scale: fibrillin monomers per microfibril repeat.
In experiment [2] the target is fibrillin microfibrils purified from bovine ciliary zonules (bovine (endogenous in ciliary zonule)) (UniProt P98133). Briefly: STEM mass mapping. The settings on record: scale: molecules of LTBP-1 per microfibril repeat.
Sequence of fibrillin microfibrils purified from bovine ciliary zonules (bovine (endogenous in ciliary zonule)) (P98133 25-2871): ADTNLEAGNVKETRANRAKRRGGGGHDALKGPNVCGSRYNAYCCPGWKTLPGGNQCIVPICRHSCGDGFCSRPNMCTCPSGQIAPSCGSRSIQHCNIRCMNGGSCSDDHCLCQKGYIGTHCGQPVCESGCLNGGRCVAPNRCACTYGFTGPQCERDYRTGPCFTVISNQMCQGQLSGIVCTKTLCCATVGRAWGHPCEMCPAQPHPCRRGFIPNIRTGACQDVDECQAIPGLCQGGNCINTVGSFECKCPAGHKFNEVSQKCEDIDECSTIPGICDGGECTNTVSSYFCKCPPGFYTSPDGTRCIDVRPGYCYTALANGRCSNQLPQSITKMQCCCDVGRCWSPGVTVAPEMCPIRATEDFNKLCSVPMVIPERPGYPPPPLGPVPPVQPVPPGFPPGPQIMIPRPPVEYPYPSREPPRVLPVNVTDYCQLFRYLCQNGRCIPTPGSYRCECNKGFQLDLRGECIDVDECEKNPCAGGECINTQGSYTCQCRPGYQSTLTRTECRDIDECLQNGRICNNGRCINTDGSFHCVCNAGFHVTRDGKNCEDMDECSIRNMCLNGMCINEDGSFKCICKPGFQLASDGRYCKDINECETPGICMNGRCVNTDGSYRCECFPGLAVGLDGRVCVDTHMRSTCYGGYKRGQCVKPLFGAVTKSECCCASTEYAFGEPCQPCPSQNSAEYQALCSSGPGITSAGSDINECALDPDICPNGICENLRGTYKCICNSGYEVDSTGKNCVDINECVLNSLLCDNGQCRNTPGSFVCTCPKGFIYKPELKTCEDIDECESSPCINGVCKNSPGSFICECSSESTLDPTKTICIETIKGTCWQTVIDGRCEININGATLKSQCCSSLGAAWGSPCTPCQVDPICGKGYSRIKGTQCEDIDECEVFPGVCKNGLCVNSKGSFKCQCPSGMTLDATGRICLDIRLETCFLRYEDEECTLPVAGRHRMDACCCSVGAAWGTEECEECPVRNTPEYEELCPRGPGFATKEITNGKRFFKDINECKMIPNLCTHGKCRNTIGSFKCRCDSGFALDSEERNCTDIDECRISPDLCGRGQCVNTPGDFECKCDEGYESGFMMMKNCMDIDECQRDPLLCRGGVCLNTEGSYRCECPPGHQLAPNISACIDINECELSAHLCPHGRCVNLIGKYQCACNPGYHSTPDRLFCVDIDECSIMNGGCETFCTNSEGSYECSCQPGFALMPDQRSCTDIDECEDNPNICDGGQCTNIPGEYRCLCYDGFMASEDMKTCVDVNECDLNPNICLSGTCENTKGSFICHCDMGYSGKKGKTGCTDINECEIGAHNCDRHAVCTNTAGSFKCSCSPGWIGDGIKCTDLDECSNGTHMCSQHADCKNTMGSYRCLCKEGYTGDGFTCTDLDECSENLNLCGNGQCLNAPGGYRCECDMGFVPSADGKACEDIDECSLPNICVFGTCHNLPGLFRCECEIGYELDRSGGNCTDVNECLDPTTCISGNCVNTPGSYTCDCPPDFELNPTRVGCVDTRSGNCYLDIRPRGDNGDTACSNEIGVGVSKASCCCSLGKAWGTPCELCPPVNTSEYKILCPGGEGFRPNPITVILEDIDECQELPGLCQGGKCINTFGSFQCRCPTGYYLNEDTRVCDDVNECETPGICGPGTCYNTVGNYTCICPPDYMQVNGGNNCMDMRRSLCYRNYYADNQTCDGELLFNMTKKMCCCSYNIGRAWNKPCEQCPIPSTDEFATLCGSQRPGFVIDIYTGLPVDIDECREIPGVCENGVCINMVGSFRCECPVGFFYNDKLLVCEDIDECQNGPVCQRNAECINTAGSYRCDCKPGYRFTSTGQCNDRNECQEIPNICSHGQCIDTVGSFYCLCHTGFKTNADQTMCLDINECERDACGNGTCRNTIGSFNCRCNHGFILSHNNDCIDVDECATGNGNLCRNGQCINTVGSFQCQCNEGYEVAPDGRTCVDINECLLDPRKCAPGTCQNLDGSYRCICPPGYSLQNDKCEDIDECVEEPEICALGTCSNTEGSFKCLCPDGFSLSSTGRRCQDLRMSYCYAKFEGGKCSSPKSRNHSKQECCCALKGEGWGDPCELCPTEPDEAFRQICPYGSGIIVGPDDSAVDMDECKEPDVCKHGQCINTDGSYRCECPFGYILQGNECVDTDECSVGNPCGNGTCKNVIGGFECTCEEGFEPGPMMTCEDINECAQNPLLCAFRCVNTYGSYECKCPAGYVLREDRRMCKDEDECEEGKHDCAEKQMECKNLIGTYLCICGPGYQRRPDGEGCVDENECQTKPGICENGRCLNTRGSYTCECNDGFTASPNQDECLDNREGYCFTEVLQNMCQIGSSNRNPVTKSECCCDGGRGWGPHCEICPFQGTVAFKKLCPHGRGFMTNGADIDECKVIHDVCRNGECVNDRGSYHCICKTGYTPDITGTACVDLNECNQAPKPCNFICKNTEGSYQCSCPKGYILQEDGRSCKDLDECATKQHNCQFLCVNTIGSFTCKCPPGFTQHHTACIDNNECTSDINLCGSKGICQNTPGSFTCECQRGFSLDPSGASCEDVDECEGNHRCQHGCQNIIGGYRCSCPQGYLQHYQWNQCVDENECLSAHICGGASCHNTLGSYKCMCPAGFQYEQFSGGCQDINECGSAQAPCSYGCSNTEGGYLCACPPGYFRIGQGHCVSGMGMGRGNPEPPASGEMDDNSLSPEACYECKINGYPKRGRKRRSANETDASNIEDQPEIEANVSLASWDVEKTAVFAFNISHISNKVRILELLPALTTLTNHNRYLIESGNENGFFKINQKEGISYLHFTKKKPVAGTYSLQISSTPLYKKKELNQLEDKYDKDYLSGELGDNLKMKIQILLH

Sequence of fibrillin (molecule within bovine ciliary zonule microfibrils) (P98133 25-2871): as above

“fibrillin (molecule within bovine ciliary zonule microfibrils) (from UniProt P98133 25-2871) (natural protein)” returned a stoichiometry N in experiment [1] of 8.

For the substance “full-length LTBP-1 (latent TGFβ-binding protein-1) (from UniProt Q14766 24-1721) (natural protein)”, the stoichiometry N in experiment [2] was determined as 2.
